Data as given in patent US20210207126A1 (ADAGENE, published 2021).

Key:
[1] = target: T1, human CD137 displayed on yeast cells (human, UniProt Q07011 24-186, limits assumed); experiment: flow cytometry on yeast cells displaying human CD137, PE anti-human Fc (column head prints EC50 over KD (nM))
T1 construct: Yeast cells displaying human CD137 on their surface; also called human CD137 on the cell surface
Experimental: (§1) The masking efficiency was then measured through flow cytometry. Briefly, yeast cells displaying human CD137 on their surface washed twice with PBSA buffer, and 50 μL (1×10\hat{ }6) cells were dispensed into each well of a 96 well plate. Cells were then incubated with 3-fold serial dilutions of antibodies for 1 hour on ice, washed once with PBSA buffer, and then incubated with 100 μL of PE conjugated mouse anti-human Fc (1 μg/ml) for 30 minutes on ice. The cells were then washed once prior to analysis by flow cytometry (Beckman® CytoFlex).

[2] = target: T1, human CD137 displayed on yeast cells; experiment: flow cytometry on yeast cells displaying human CD137, PE anti-human Fc
Experimental: as §1

[3] = target: T2, Recombinant human CTLA4-Fc (human, UniProt P16410 36-161, limits assumed); experiment: ELISA on plate-coated recombinant human CTLA4-Fc, before protease cleavage, third block of Table 6 (set of FIG. 7C)
T2 construct: Coated on the ELISA plate at 1 ug/mL; also called its antigen; not shown: Fc part
T2 sequence (looked up): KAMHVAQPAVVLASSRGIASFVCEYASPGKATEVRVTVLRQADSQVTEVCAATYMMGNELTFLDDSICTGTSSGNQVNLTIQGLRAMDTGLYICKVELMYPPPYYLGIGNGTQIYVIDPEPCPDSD

[4] = target: T2, Recombinant human CTLA4-Fc; experiment: ELISA on plate-coated recombinant human CTLA4-Fc as in Example 3 (FIG. 24A)
Experimental: (§2) Recombinant human CTLA4-Fc was diluted to 1 μg/mL in PBS and coated on a Maxisorp plate at 4° C. overnight. Plates were blocked with PBS supplemented with 3% non-fat milk at 37° C. for 1 hour. After washing, 100 μL of 3-fold serial dilutions of antibodies were added to each well. After incubation at 37° C. for 1 hour, plates were washed four times, and 100 μL HRP conjugated anti-human IgG (Fab specific) (1:6000 dilution) was added to each well. Plates were incubated at 37° C. for 1 hour, washed four times, and then 50 μL TMB substrate solution was added to each well, and the plate was incubated at room temperature. Absorbance at 450 nm was measured after the reactions were stopped with 50 μL H₂SO₄ per well. The EC₅₀ was evaluated by fitting the ELISA data using the asymmetrical sigmoidal (five-parameter logistic equation) model of GraphPad Prism 6 software.

[5] = target: T2, Recombinant human CTLA4-Fc; experiment: ELISA on plate-coated recombinant human CTLA4-Fc, before protease cleavage, data batch 1
Experimental: as §2

[6] = target: T2, Recombinant human CTLA4-Fc; experiment: ELISA on plate-coated recombinant human CTLA4-Fc, before protease cleavage, data batch 2
Experimental: as §2

Kd [1] [nM] | masking efficiency (against parental TY21242) [2] [fold] | other results | Binder
0.28 | 1 |  | TY21242 (antibody, V domains shown, also called parental antibody TY21242; parental CD137 antibody) VH: EVQLVESGGGLVQPGGSLRLSCAASGFSLSTGGVGVGWIRQAPGKGLEWLALIDWADDKYYSPSLKSRLTISRDNSKNTLYLQLNSLRAEDTAVYYCARGGSDTVIGDWFAYWGQGTLVTVSS VL: DIQLTQSPSSLSASVGDRVTITCRASQSIGSYLAWYQQKPGKAPKLLIYDASNLETGVPSRFSGSGSGTDFTLTISSLQPEDFATYYCQQGYYLWTFGQGTKVEIK
5.86 | 20.8 |  | TY22596 (antibody, V domains shown, Full IgG4 from mammalian cells; peptide fused to the N-terminus of the light chain of TY21242) VH: EVQLVESGGGLVQPGGSLRLSCAASGFSLSTGGVGVGWIRQAPGKGLEWLALIDWADDKYYSPSLKSRLTISRDNSKNTLYLQLNSLRAEDTAVYYCARGGSDTVIGDWFAYWGQGTLVTVSS VL: EVGSYYHDYDDCRVLPRRCFNSGRSAGGGGSPLGLAGSGGSDIQLTQSPSSLSASVGDRVTITCRASQSIGSYLAWYQQKPGKAPKLLIYDASNLETGVPSRFSGSGSGTDFTLTISSLQPEDFATYYCQQGYYLWTFGQGTKVEIK
8.61 | 30.5 |  | TY22598 (antibody, V domains shown, Full IgG4 from mammalian cells; peptide fused to the N-terminus of the light chain of TY21242) VH: EVQLVESGGGLVQPGGSLRLSCAASGFSLSTGGVGVGWIRQAPGKGLEWLALIDWADDKYYSPSLKSRLTISRDNSKNTLYLQLNSLRAEDTAVYYCARGGSDTVIGDWFAYWGQGTLVTVSS VL: EVGSYSNNFASCLWRHRSCADSGRSAGGGGSPLGLAGSGGSDIQLTQSPSSLSASVGDRVTITCRASQSIGSYLAWYQQKPGKAPKLLIYDASNLETGVPSRFSGSGSGTDFTLTISSLQPEDFATYYCQQGYYLWTFGQGTKVEIK
10.8 | 38.3 |  | TY22591 (antibody, V domains shown, Full IgG4 from mammalian cells; peptide fused to the N-terminus of the light chain of TY21242) VH: EVQLVESGGGLVQPGGSLRLSCAASGFSLSTGGVGVGWIRQAPGKGLEWLALIDWADDKYYSPSLKSRLTISRDNSKNTLYLQLNSLRAEDTAVYYCARGGSDTVIGDWFAYWGQGTLVTVSS VL: EVGSYSSTHAHCHHSPANCISSGRSAGGGGSPLGLAGSGGSDIQLTQSPSSLSASVGDRVTITCRASQSIGSYLAWYQQKPGKAPKLLIYDASNLETGVPSRFSGSGSGTDFTLTISSLQPEDFATYYCQQGYYLWTFGQGTKVEIK
107 | 379 |  | TY22595 (antibody, V domains shown, Full IgG4 from mammalian cells; peptide fused to the N-terminus of the light chain of TY21242) VH: EVQLVESGGGLVQPGGSLRLSCAASGFSLSTGGVGVGWIRQAPGKGLEWLALIDWADDKYYSPSLKSRLTISRDNSKNTLYLQLNSLRAEDTAVYYCARGGSDTVIGDWFAYWGQGTLVTVSS VL: EVGSYNDYNYHCKWRPSRCHNSGRSAGGGGSPLGLAGSGGSDIQLTQSPSSLSASVGDRVTITCRASQSIGSYLAWYQQKPGKAPKLLIYDASNLETGVPSRFSGSGSGTDFTLTISSLQPEDFATYYCQQGYYLWTFGQGTKVEIK
98.1 | 348 |  | TY22599 (antibody, V domains shown, Full IgG4 from mammalian cells; peptide fused to the N-terminus of the light chain of TY21242) VH: EVQLVESGGGLVQPGGSLRLSCAASGFSLSTGGVGVGWIRQAPGKGLEWLALIDWADDKYYSPSLKSRLTISRDNSKNTLYLQLNSLRAEDTAVYYCARGGSDTVIGDWFAYWGQGTLVTVSS VL: EVGSYTDNYDYCPRLRRKCYHSGRSAGGGGSPLGLAGSGGSDIQLTQSPSSLSASVGDRVTITCRASQSIGSYLAWYQQKPGKAPKLLIYDASNLETGVPSRFSGSGSGTDFTLTISSLQPEDFATYYCQQGYYLWTFGQGTKVEIK
23.6 | 83.7 |  | TY22594 (antibody, V domains shown, Full IgG4 from mammalian cells; peptide fused to the N-terminus of the light chain of TY21242) VH: EVQLVESGGGLVQPGGSLRLSCAASGFSLSTGGVGVGWIRQAPGKGLEWLALIDWADDKYYSPSLKSRLTISRDNSKNTLYLQLNSLRAEDTAVYYCARGGSDTVIGDWFAYWGQGTLVTVSS VL: EVGSYDTDYDFCPILRHRCDSSGRSAGGGGSPLGLAGSGGSDIQLTQSPSSLSASVGDRVTITCRASQSIGSYLAWYQQKPGKAPKLLIYDASNLETGVPSRFSGSGSGTDFTLTISSLQPEDFATYYCQQGYYLWTFGQGTKVEIK
 |  | masking efficiency (EC50 / EC50 of parental TY21580) [3]: 144 fold | TY22563 (antibody, V domains shown, IgG1; derived from B13192 to remove a potential glycosylation site) VH: EVQLVESGGGLVQPGGSLRLSCAASGYSISSGYHWSWIRQAPGKGLEWLARIDWDDDKYYSTSLKSRLTISRDNSKNTLYLQLNSLRAEDTAVYYCARSYVYFDYWGQGTLVTVSS VL: EVGSYYSAYPACDSHYPYCQSSGRSAGGGGSPLGLAGSGGSDIQLTQSPSSLSASVGDRVTITCRASQSVRGRFLAWYQQKPGKAPKLLIYDASNRATGIPSRFSGSGSGTDFTLTISSLQPEDFATYYCQQSSSWPPTFGQGTKVEIKR
 |  | masking efficiency (EC50 / EC50 of parental TY21580) [4]: 168 fold | TY22775 (antibody, V domains shown, TY22402 with the masking peptide shortened to 16 residues; expressed in mammalian cells; isotype not restated (parent construct IgG1)) VH: EVQLVESGGGLVQPGGSLRLSCAASGYSISSGYHWSWIRQAPGKGLEWLARIDWDDDKYYSTSLKSRLTISRDNSKNTLYLQLNSLRAEDTAVYYCARSYVYFDYWGQGTLVTVSS VL: EVGHSDCDAFYPYCDSSGRSAGGGGTPLGLAGSGGSDIQLTQSPSSLSASVGDRVTITCRASQSVRGRFLAWYQQKPGKAPKLLIYDASNRATGIPSRFSGSGSGTDFTLTISSLQPEDFATYYCQQSSSWPPTFGQGTKVEIKR
 |  | masking efficiency (EC50 / EC50 of parental TY21580) [3]: 632 fold | TY22565 (antibody, V domains shown, IgG1; derived from B13197 to remove a potential glycosylation site) VH: EVQLVESGGGLVQPGGSLRLSCAASGYSISSGYHWSWIRQAPGKGLEWLARIDWDDDKYYSTSLKSRLTISRDNSKNTLYLQLNSLRAEDTAVYYCARSYVYFDYWGQGTLVTVSS VL: EVGSYPQPSSDCVPYYYACAYSGRSAGGGGSPLGLAGSGGSDIQLTQSPSSLSASVGDRVTITCRASQSVRGRFLAWYQQKPGKAPKLLIYDASNRATGIPSRFSGSGSGTDFTLTISSLQPEDFATYYCQQSSSWPPTFGQGTKVEIKR
 |  | masking efficiency (EC50 / EC50 of parental TY21580) [3]: 489 fold | TY22566 (antibody, V domains shown, IgG1; derived from B13197 to remove a potential glycosylation site) VH: EVQLVESGGGLVQPGGSLRLSCAASGYSISSGYHWSWIRQAPGKGLEWLARIDWDDDKYYSTSLKSRLTISRDNSKNTLYLQLNSLRAEDTAVYYCARSYVYFDYWGQGTLVTVSS VL: EVGSYPNPASDCVPYYYACAYSGRSAGGGGSPLGLAGSGGSDIQLTQSPSSLSASVGDRVTITCRASQSVRGRFLAWYQQKPGKAPKLLIYDASNRATGIPSRFSGSGSGTDFTLTISSLQPEDFATYYCQQSSSWPPTFGQGTKVEIKR
 |  | masking efficiency (EC50 / EC50 of parental TY21580) [4]: 296 fold | TY22776 (antibody, V domains shown, TY22404 with the masking peptide shortened to 16 residues; expressed in mammalian cells; isotype not restated (parent construct IgG1)) VH: EVQLVESGGGLVQPGGSLRLSCAASGYSISSGYHWSWIRQAPGKGLEWLARIDWDDDKYYSTSLKSRLTISRDNSKNTLYLQLNSLRAEDTAVYYCARSYVYFDYWGQGTLVTVSS VL: EVGSSDCVPYYYACAYSGRSAGGGGTPLGLAGSGGSDIQLTQSPSSLSASVGDRVTITCRASQSVRGRFLAWYQQKPGKAPKLLIYDASNRATGIPSRFSGSGSGTDFTLTISSLQPEDFATYYCQQSSSWPPTFGQGTKVEIKR
 |  | masking efficiency (EC50 / EC50 of parental TY21580) [3]: 117 fold | TY22564 (antibody, V domains shown, IgG1; derived from B13192 to remove a potential glycosylation site) VH: EVQLVESGGGLVQPGGSLRLSCAASGYSISSGYHWSWIRQAPGKGLEWLARIDWDDDKYYSTSLKSRLTISRDNSKNTLYLQLNSLRAEDTAVYYCARSYVYFDYWGQGTLVTVSS VL: EVGSYYSAYPACDSHYPYCNSAGRSAGGGGSPLGLAGSGGSDIQLTQSPSSLSASVGDRVTITCRASQSVRGRFLAWYQQKPGKAPKLLIYDASNRATGIPSRFSGSGSGTDFTLTISSLQPEDFATYYCQQSSSWPPTFGQGTKVEIKR
 |  | masking efficiency (EC50 / EC50 of parental TY21580) [5]: 110 fold; masking efficiency (EC50 / EC50 of parental TY21580) [6]: 48 fold | TY22401 (antibody, V domains shown, IgG1 from HEK293F cells; masking and cleavage peptide fused to the N-terminus of the light chain of TY21580; also called masking peptide B13189) VH: EVQLVESGGGLVQPGGSLRLSCAASGYSISSGYHWSWIRQAPGKGLEWLARIDWDDDKYYSTSLKSRLTISRDNSKNTLYLQLNSLRAEDTAVYYCARSYVYFDYWGQGTLVTVSS VL: EVGSYNFVADSCPDHPYPCSASGRSAGGGGSPLGLAGSGGSDIQLTQSPSSLSASVGDRVTITCRASQSVRGRFLAWYQQKPGKAPKLLIYDASNRATGIPSRFSGSGSGTDFTLTISSLQPEDFATYYCQQSSSWPPTFGQGTKVEIKR
